From the RNAGym collection of RNA variant scans (doi:10.7554/elife.80360)

B1: CPEB3 Ribozyme (parent)
chain: GGGGGCCACAGCAGAAGCGUUCACGUCGCGGCCCCUGUCAGAUUCUGGUGAAUCUGCGAAUUCUGCUGU

Variants of: B1
Assay: self-cleavage, relative activity (ratio to wild type); higher = more cleavage; co-transcriptional

In order of falling self-cleavage:
1. GGGGGCCACAGCAGAAGCGUACACGUCGCGGCCCCUGUCAGAUUCUGGUGACUCUGCGAAUUCUGCUGU  1.03
2. GGGGGCCACAGCAGAAGCGUACACGUCGCGGCCCCUGUCAGAUUAUGGUGAAUCUGCGAAUUCUGCUGU  1.01
3. GGGGGCCACAGCAGAAGCGUACACGUCGCGGCCCCUGUCAGAUUCUGGUGGAUCUGCGAAUUCUGCUGU  1.01
4. GGGGGCCACAGCAGAAGCGUACACGUCGCGGCCCCUGUCAGAUUCUGGUGAGUCUGCGAAUUCUGCUGU  1.01
5. GGGGGCCACAGCAGAAGCGUACACGUCGCGGCUCCUGUCAGAUUCUGGUGAAUCUGCGAAUUCUGCUGU  1
6. GGGGGCCACAGCAGAAGCGUACACGUCGCGGCCCCUGUCAGAUUCUGGUGAAUCUGCGGAUUCUGCUGU  1
7. GGGGGCCACAGCAGAAGCGUACACGUCGCGGCCUCUGUCAGAUUCUGGUGAAUCUGCGAAUUCUGCUGU  0.995
8. GGGGGCCACAGCAGAAGCGUACACGUCGCGGCCCCUGUGAGAUUCUGGUGAAUCUGCGAAUUCUGCUGU  0.981
9. GGGGGCCACAGCAGAAGCGUACACGUCGCGGCCCCUGUCAGAUUCUGGUGAAUCUGCGAAUUCUGCUGU  0.979
10. GGGGGCCACAGCAGAAGCGUACACGUCGCGGCCCCUGUCGGAUUCUGGUGAAUCUGCGAAUUCUGCUGU  0.97
11. GGGGGCCACAGCAGAAGCGUACCCGUCGCGGCCCCUGUCAGAUUCUGGUGAAUCUGCGAAUUCUGCUGU  0.969
12. GGGGGCCACAGCAGAAGCGUACUCGUCGCGGCCCCUGUCAGAUUCUGGUGAAUCUGCGAAUUCUGCUGU  0.962
13. GGGGGCCACAGCAGAAGCGUACACGUCGCGGCCCCUGUCAGAUUCUGGUGCAUCUGCGAAUUCUGCUGU  0.953
14. GGGGGCCACAGCAGAAGCGUACACGUCGCGGCCCCUGUCAGAUUCUGGUGUAUCUGCGAAUUCUGCUGU  0.952
15. GGGGGCCACAGCAGAAGCGUACGCGUCGCGGCCCCUGUCAGAUUCUGGUGAAUCUGCGAAUUCUGCUGU  0.943
16. GGGGGCCACAGCAGAAGCGUACACGUCGCGGCCCCUGUCAGAUUCUGGUGAUUCUGCGAAUUCUGCUGU  0.935
17. GGGGGCCACAGCAGAAGCGUACACGUCGCGGCCCCUGUUAGAUUCUGGUGAAUCUGCGAAUUCUGCUGU  0.928
18. GGGGGCCACAGCAGAAGCGUACACGUCGCGGCCCCUGUCAGCUUCUGGUGAAUCUGCGAAUUCUGCUGU  0.902
19. GGGGGCCACAGCAGAAGCGUACACGUCGCGGCCCCUGUCUGAUUCUGGUGAAUCUGCGAAUUCUGCUGU  0.896
20. GGGGGCCACAGCAGAAGCGUACACGUCGCGGCCCCUGUCAGAUUCUGGUGAAUCUGCGAGUUCUGCUGU  0.879
21. GGGGGCCACAGCAGAAGCGUACACGUCGCGGCCCUUGUCAGAUUCUGGUGAAUCUGCGAAUUCUGCUGU  0.869
22. GGGGGCCACAGCAGAAGCGUACACGUCGCGGCCCCUGUCAGGUUCUGGUGAAUCUGCGAAUUCUGCUGU  0.858
23. GGGGGCCACAGCAGAAGCGUACACGUCGCGGCACCUGUCAGAUUCUGGUGAAUCUGCGAAUUCUGCUGU  0.808
24. GGGGGCCACAGCAGAAGCGUACACGUCGCGGCCACUGUCAGAUUCUGGUGAAUCUGCGAAUUCUGCUGU  0.708
25. GGGGGCCACAGCAGAAGCGUACACGUCGCGGCCCCUGUCAGAUUCUGGUGAAUCUGCGCAUUCUGCUGU  0.681
26. GGGGGCCACAGCAGAAGCGUACACGUCGCGGCCCCUGUCCGAUUCUGGUGAAUCUGCGAAUUCUGCUGU  0.651
27. GGGGGCCACAGCAGAAGCGUACACGUCGCGGCCCCUGUCAGAUUCUGGUGAAUCUGCGAUUUCUGCUGU  0.586
28. GGGGGCCACAGCAGAAGCGUACAAGUCGCGGCCCCUGUCAGAUUCUGGUGAAUCUGCGAAUUCUGCUGU  0.541
29. GGGGGCCACAGCAGAAGCGUACACGUCGCGGCGCCUGUCAGAUUCUGGUGAAUCUGCGAAUUCUGCUGU  0.536
30. GGGGGCCACAGCAGAAGCGUACACGUCGCGGGCCCUGUCAGAUUCUGGUGAAUCUGCGAAUUCUGCUGU  0.504
31. GGGGGCCACAGCAGAAGCGUACACGUAGCGGCCCCUGUCAGAUUCUGGUGAAUCUGCGAAUUCUGCUGU  0.447
32. GGGGGCCACAGCAGAAGCGUACACGUCGGGGCCCCUGUCAGAUUCUGGUGAAUCUGCGAAUUCUGCUGU  0.445
33. GGGGGCCACAGCAGAAGCGUACACGUCGUGGCCCCUGUCAGAUUCUGGUGAAUCUGCGAAUUCUGCUGU  0.413
34. GGGGGCCACAGCAGAAGCGUACACGUCGCGGCCCAUGUCAGAUUCUGGUGAAUCUGCGAAUUCUGCUGU  0.323
35. GGGGGCCACAGCAGAAGCGGUCACGUCGCGGCCCCUGUCAGAUUCUGGUGAAUCUGCGAAUUCUGCUGG  0.322
36. GGGGGCCACAGCAGAAGCGGUCACGUCGCGGCCCCUGUCAGAUUCUGGUGAAUCUGCGAAUGCUGCUGU  0.292
37. GGGGGCCACAGCAGAAGCGUACACGUCGCGGCCCCUGUCAGAUUCUGGUGAAUCUGCGACUUCUGCUGU  0.29
38. GGGGGCCACAGCAGAAGCGGUCACGUCGCGGCCCCUGACAGAUUCUGGUGAAUCUGCGAAUUCUGCUGU  0.288
39. GGGGGCCACAGCAGAAGCGGUCACGUCGCGGCCCCUGUCAGAUUCUGGUGAAUCUGCGAAUUCUGCUGC  0.281
40. GGGGGCCACAGCAGAAGCGGUCACGUCGCGGCCCCUGUCAGAUUCUGGUGAAUCUGCGAAUUCUGCUCU  0.275
41. GGGGGCCACAGCAGAAGCGGUCACGUCGCGGCCCCUGUCAGAUUCUGGGGAAUCUGCGAAUUCUGCUGU  0.27
42. GGGGGCCACAGCAGAAGCGGUCACGUCGCGGCCCCUGUCAGAUUCUGGUGAAUCUGCGAAUUCUUCUGU  0.262
43. GGGGGCCACAGCAGAAGCGGUCACGUCGCGGCCCCUGUCAGAUUCUGGAGAAUCUGCGAAUUCUGCUGU  0.26
44. GGGGGCCACAGCAGAAGCGGACACGUCGCGGCCCCUGUCAGAUUCUGGUGAAUCUGCGAAUUCUGCUGU  0.252
45. GGGGGCCACAGCAGAAGCGGUCACGUCGCGGCCCCUGUCAGAUUCUGGUGAAUCUGCAAAUUCUGCUGU  0.251
46. GGGGGCCACAGCAGAAGCGGUCACGUCGCGGCCCCUGUCAGAUUCUGGUCAAUCUGCGAAUUCUGCUGU  0.246
47. GGGGGCCACAGCAGAAGCGGUCACGUCGCGGCCCCUGUCAGAUUCUGGUGAAUCUGCGAAUUCUGCUAU  0.235
48. GGGGGCCACAGCAGAAGCGGUCACGUCGCGGCCCCUGUCAGAUUCUGGUGAACCUGCGAAUUCUGCUGU  0.222
49. GGGGGCCACAGCAGAAGCGUACAGGUCGCGGCCCCUGUCAGAUUCUGGUGAAUCUGCGAAUUCUGCUGU  0.214
50. GGGGGCCACAGCAGAAGCGGUCACGUCGCGGCCCCUGUCAGAUUCUGGUGAAUCUGCUAAUUCUGCUGU  0.213
51. GGGGGCCACAGCAGAAGCGGUCACGUCGCGGCCCCUGUCAGAUUCUGGUGAAUCUUCGAAUUCUGCUGU  0.199
52. GGGGGCCACAGCAGAAGCGGUCACGUCGCGGCCCCUGUCAGAUUCUGGUGAAUCUACGAAUUCUGCUGU  0.191
53. GGGGGCCACAGCAGAAGCGGUCACGUCGCGGCCCCUGUCAGAUUCUGGUGAAUCUGCGAACUCUGCUGU  0.19
54. GGGGGCCACAGCAGAAGCGGUCACGUCGCGGCCCCUGUCAGAUUCUGGUGAAUCUGCGAAUUCCGCUGU  0.189
55. GGGGGCCACAGCAGAAGCGGUCACGUCGCGGCCCCUGCCAGAUUCUGGUGAAUCUGCGAAUUCUGCUGU  0.185
56. GGGGGCCACAGCAGAAGCGGUCACGUCGCGGCCCCUGUCAGAUUCUGGUGAAUCUGCGAAUACUGCUGU  0.183
57. GGGGGCCACAGCAGAAGCGGUCACGUCGCGGCCCCUGUCAGACUCUGGUGAAUCUGCGAAUUCUGCUGU  0.182
58. GGGGGCCACAGCAGAAGCGGUCACGUCGCGGCCCCUGUCAGAUUCUGGCGAAUCUGCGAAUUCUGCUGU  0.173
59. GGGGGCCACAGCAGAAGCGGUCACGUCGCGGCCCCUGUCAGAUUCUGGUGAAUCUGCGAAGUCUGCUGU  0.171
60. GGGGGCCACAGCAGAAGCGGUCACGUCGCGGCCCCUGUCAGAUGCUGGUGAAUCUGCGAAUUCUGCUGU  0.168
61. GGGGGCCACAGCAGAAGCGGUCACGUCGCGGCCCCUGUCAGAUUCUGGUGAAGCUGCGAAUUCUGCUGU  0.166
62. GGGGGCCACAGCAGAAGCGGUCACGUCGCGGCCCCUGUCAGAUUCCGGUGAAUCUGCGAAUUCUGCUGU  0.164
63. GGGGGCCACAGCAGAAGCGGUCACGUCGCGGCCCCUGUCAGAUUCAGGUGAAUCUGCGAAUUCUGCUGU  0.164
64. GGGGGCCACAGCAGAAGCGUACACGUUGCGGCCCCUGUCAGAUUCUGGUGAAUCUGCGAAUUCUGCUGU  0.162
65. GGGGGCCACAGCAGAAGCGGUCACGUCGCGGCCCCUGUCAGAUUCUGGUGAAUCUGCGAAUUCUACUGU  0.155
66. GGGGGCCACAGCAGAAGCGGUCACGUCGCGGCCCCUGUCAGAUUCUGGUGAAUCUGCGAAUUCUGCGGU  0.152
67. GGGGGCCACAGCAGAAGCGGGCACGUCGCGGCCCCUGUCAGAUUCUGGUGAAUCUGCGAAUUCUGCUGU  0.148
68. GGGGGCCACAGCAGAAGCGGUCACGUCGCGGCCCCUGUCAGAUUCUGGUGAAUCCGCGAAUUCUGCUGU  0.148
69. GGGGGCCACAGCAGAAGCGGUCACGUCGCGGCCCCUGUCAGAUUCUGGUGAAUCAGCGAAUUCUGCUGU  0.139
70. GGGGGCCACAGCAGAAGCGUAAACGUCGCGGCCCCUGUCAGAUUCUGGUGAAUCUGCGAAUUCUGCUGU  0.132
71. GGGGGCCACAGCAGAAGCGGUCACGUCGCGGCCCCAGUCAGAUUCUGGUGAAUCUGCGAAUUCUGCUGU  0.13
72. GGGGGCCACAGCAGAAGCGGUCACGUCGCGGCCCCUGUCAGAUUCUGGUGAAACUGCGAAUUCUGCUGU  0.127
73. GGGGGCCACAGCAGAAGCGGUCACGCCGCGGCCCCUGUCAGAUUCUGGUGAAUCUGCGAAUUCUGCUGU  0.114
74. GGGGGCCACAGCAGAAGCGGUCACGUCGCGGCCCCUGUCAGAUUCUGGUGAAUCGGCGAAUUCUGCUGU  0.106
75. GGGGGCCACAGCAGAAGCGGUCACGUCGCGGCCCCUGUCAGAUUCUGGUGAAUCUCCGAAUUCUGCUGU  0.104
76. GGGGGCCACAGCAGAAGCGGUCACGUCGCGGCCCCCGUCAGAUUCUGGUGAAUCUGCGAAUUCUGCUGU  0.0978
77. GGGGGCCACAGCAGAAGCGUAGACGUCGCGGCCCCUGUCAGAUUCUGGUGAAUCUGCGAAUUCUGCUGU  0.0886
78. GGGGGCCACAGCAGAAGCGGUCACGUCGCGGCCCCUGUCAGAAUCUGGUGAAUCUGCGAAUUCUGCUGU  0.0656
